Patent US20220146515A1 (XIAMEN INNODX BIOTECH, published 2022)

What was measured:
Experiment in all cases: competition ELISA, antibody preincubated with target, AMH-coated plate
[1] = target: T1, AMH truncated antigen 41-51 (human)
T1 sequence (peptide): EDLDWPPGSPQ

[2] = target: T2, AMH truncated antigen 42-50 (human)
T2 sequence (peptide): DLDWPPGSP

[3] = target: T3, AMH truncated antigen 41-47 (human)
T3 sequence (peptide): EDLDWPP

[4] = target: T4, AMH truncated antigen 38-44 (human)
T4 sequence (peptide): IFREDLD

[5] = target: T5, AMH3647-21 (Sheep sequence) (Sheep)
T5 sequence (peptide): TLIFQQGWDWPL

[6] = target: T6, AMH truncated antigen 42-51 (human)
T6 sequence (peptide): DLDWPPGSPQ

[7] = target: T7, AMH3647-5 (Diademed Sifaka sequence) (Diademed Sifaka)
T7 sequence (peptide): GLIFHEDWDWPP

[8] = target: T8, AMH3647-14 (Little mole rat sequence) (Little mole rat)
T8 sequence (peptide): GLIFLQDGMWSP

[9] = target: T9, AMH truncated antigen 37-45 (human)
T9 peptide: LIFREDLDW
Experimental: (§1) 1. AMH antigen was diluted with carbonic acid buffer (20 mmol/L CB, pH 9.6) and then coated on a polyvinyl chloride plate. In the pretreatment, the antibody purified by the protein A column and the synthesized AMH truncated antigen sequences (see Table 3 for each synthetic sequence) were subjected to proportion incubation (100 ng/ml antibody: 50 ug/ml truncated antigen) for 30 minutes, that were test samples; the control sample was 100 ng/ml antibody: PBS, incubation for 30 minutes, and then the test samples after incubation and the control sample were added to AMH antigen plate and incubated for 30 minutes, the plate was washed for 5 times, added with GAM-HRP (1/5000 dilution) and incubated for 30 minutes, the plate was washed for 5 times, and the substrate was added and incubated for 15 minutes. The values under wavelength of 450/620 were read by microplate reader, and the detected OD values were finally calculated and analyzed. The calculation formula was: (control sample OD value−test sample OD value)/control sample OD value, and the criterion for determination was as follows: more than 90%, which indicated a good competitive effect, showing that the antibody should recognize the epitope.

[10] = target: T10, AMH truncated antigen 41-45 (human)
T10 peptide: EDLDW
Experimental: as §1

[11] = target: T11, AMH truncated antigen 21-35 (human)
T11 peptide: GTEALRAEEPAVGTS
Experimental: as §1

[12] = target: T12, AMH truncated antigen 43-51 (human)
T12 peptide: LDWPPGSPQ
Experimental: as §1

[13] = target: T13, AMH truncated antigen 33-41 (human)
T13 peptide: GTSGLIFRE
Experimental: as §1

[14] = target: T14, AMH truncated antigen 41-49 (human)
T14 peptide: EDLDWPPGS
Experimental: as §1

[15] = target: T15, AMH truncated antigen 36-45 (human)
T15 peptide: GLIFREDLDW
Experimental: as §1

[16] = target: T16, AMH truncated antigen 35-45 (human)
T16 peptide: SGLIFREDLDW
Experimental: as §1

[17] = target: T17, AMH truncated antigen 42-48 (human)
T17 peptide: DLDWPPG
Experimental: as §1

[18] = target: T18, AMH truncated antigen 42-47 (human)
T18 peptide: DLDWPP
Experimental: as §1

[19] = target: T19, AMH truncated antigen 51-65 (human)
T19 peptide: QEPLCLVALGGDSNG
Experimental: as §1

[20] = target: T20, AMH truncated antigen 41-46 (human)
T20 peptide: EDLDWP
Experimental: as §1

[21] = target: T21, AMH truncated antigen 36-47 (human)
T21 construct: also called human AMH36-47; AMH3647-27 (Human)
T21 peptide: GLIFREDLDWPP
Experimental: as §1

[22] = target: T22, AMH truncated antigen 40-46 (human)
T22 peptide: REDLDWP
Experimental: as §1

[23] = target: T23, AMH truncated antigen 71-85 (human)
T23 peptide: RVVGALSAYEQAFLG
Experimental: as §1

[24] = target: T24, AMH truncated antigen 31-41 (human)
T24 peptide: AVGTSGLIFRE
Experimental: as §1

[25] = target: T25, AMH truncated antigen 43-50 (human)
T25 peptide: LDWPPGSP
Experimental: as §1

[26] = target: T26, AMH truncated antigen 42-49 (human)
T26 peptide: DLDWPPGS
Experimental: as §1

[27] = target: T27, AMH truncated antigen 31-45 (human)
T27 peptide: AVGTSGLIFREDLDW
Experimental: as §1

[28] = target: T28, AMH truncated antigen 37-44 (human)
T28 construct: Printed with a blank (LIFR EDLD)
T28 peptide: LIFREDLD
Experimental: as §1

[29] = target: T29, AMH truncated antigen 40-45 (human)
T29 peptide: REDLDW
Experimental: as §1

[30] = target: T30, AMH truncated antigen 34-41 (human)
T30 peptide: TSGLIFRE
Experimental: as §1

[31] = target: T31, AMH truncated antigen 34-45 (human)
T31 peptide: TSGLIFREDLDW
Experimental: as §1

[32] = target: T32, AMH truncated antigen 31-42 (human)
T32 peptide: AVGTSGLIFRED
Experimental: as §1

percent inhibition [1]: 71% | percent inhibition [2]: 57% | percent inhibition [3]: 64% | percent inhibition [4]: 33% | percent inhibition [5]: 10% | percent inhibition [6]: 60% | percent inhibition [7]: 32% | percent inhibition [8]: 29% | percent inhibition [9]: 91% | percent inhibition [10]: 15% | percent inhibition [11]: 10% | percent inhibition [12]: -10% | percent inhibition [13]: 9% | percent inhibition [14]: 3% | percent inhibition [15]: 94% | percent inhibition [16]: 97% | percent inhibition [17]: 2% | percent inhibition [18]: 6% | percent inhibition [19]: 9% | percent inhibition [20]: 15% | percent inhibition [21]: 100% | percent inhibition [22]: -2% | percent inhibition [23]: 21% | percent inhibition [24]: 10% | percent inhibition [25]: 17% | percent inhibition [26]: -8% | percent inhibition [27]: 90% | percent inhibition [28]: 24% | percent inhibition [29]: -14% | percent inhibition [30]: 3% | percent inhibition [31]: 98% | percent inhibition [32]: 16%
B1: monoclonal antibody C9F2-2 (antibody, V domains shown)
VH: EVQLVESGGGLVKPGGSLKLSCAASGFAFSTYDMSWVRQTPEKRLEWVAYISPGGGATYYPDTVKGRFTISRDNAKNTLYLQMTSLKSEDTAMYYCAGRRDYYGMDYWGQGTSVTVSS
VL: DVVMTQTPLSLPVSLGDQASISCRSSQSLVHSNGNTYLHWYLQKPGQSPKLLIYKVSNRFSGVPDRFSGSGSGTDFTLKISRVEAEDLGVYFCSQSTHVPWTFGGGTKLEIK
notes: Mouse hybridoma antibody purified from ascites; the tie is indirect; also called hybridoma CCTCC NO: C2018183
